Sequences and labels used below:
T1: amphyphisin SH3 (AMPH_HUMAN), P49418
T1 chain: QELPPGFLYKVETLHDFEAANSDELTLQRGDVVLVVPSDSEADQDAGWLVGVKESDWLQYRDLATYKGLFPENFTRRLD

One experiment addresses T1, amphyphisin SH3 (AMPH_HUMAN), P49418. Kind of experiment: SPOT array.
Molecule FNKYLSRPKRFEVA [P50219 263-276] returned a normalised SPOT signal, Boehringer light units (BLU); mean over the file's lines of this peptide of 193.
Same read-out and setting: the same measure for AIAPPPRPPKPSQA [Q9UQC2 347-361]: 3020; for FNFDIRRPSLEHRQ [O43558 420-433]: 115; for FNDSPYKPPVTRSN [Q9H7L2 189-203]: 64.1.
Still for that read-out and setting: in the case of FLNRLVRPRRSAPK [O43508 84-97] it was 724.
Regarding FLTRLRRPIGKMTI [P28288 243-256], the normalised SPOT signal, Boehringer light units (BLU); mean over the file's lines of this peptide was 14.2.
Same read-out and setting: in the case of AILTLPRPVRASLP [Q9NQ75 154-167] it was 402.
The molecule FLGHIKRPWGISVG [Q12908 58-71] returned a normalised SPOT signal, Boehringer light units (BLU); mean over the file's lines of this peptide of 34.2.
For FNQALGRPEKIHNK [Q9UHP3 379-392], the normalised SPOT signal, Boehringer light units (BLU); mean over the file's lines of this peptide amounted to 92.
Still for that read-out and setting: in the case of FNKYISRPRRVELA [P52945 167-180] it was 242; in that of FLLLPPRPPPARPE [Q96IC8 98-112], 42.3.
FLGGPARPPSPSPS [P08588 264-278]: the normalised SPOT signal, Boehringer light units (BLU); mean over the file's lines of this peptide is 80.6.
As to FMSSPRRPRSRGRQ [Q9HAP2 6-19], the normalised SPOT signal, Boehringer light units (BLU); mean over the file's lines of this peptide was found to be 1130.
Still for that read-out and setting: the same measure for FNKYLSRPRRVEIA [O43364 164-177]: 255; for FNFDFRRPGPEPPR [O43559 400-413]: 26.2.

The next experiment deals with endophilin SH3 (SH3G2_HUMAN), Q99962. Kind of experiment: SPOT array.
As for FNKYLSRPKRFEVA [P50219 263-276], the normalised SPOT signal, Boehringer light units (BLU); mean over the file's lines of this peptide came to 111.
Still for that read-out and setting: the same measure for AIAPPPRPPKPSQA [Q9UQC2 347-361]: 5760; for FNFDIRRPSLEHRQ [O43558 420-433]: 3350.
The same measure, in the same setting: the same measure for FNDSPYKPPVTRSN [Q9H7L2 189-203]: 93; for FLNRLVRPRRSAPK [O43508 84-97]: 2010.
Turning to FLTRLRRPIGKMTI [P28288 243-256], the normalised SPOT signal, Boehringer light units (BLU); mean over the file's lines of this peptide came to 382.
Still for that read-out and setting: the same measure for AILTLPRPVRASLP [Q9NQ75 154-167]: 1390.
Molecule FLGHIKRPWGISVG [Q12908 58-71] registered a normalised SPOT signal, Boehringer light units (BLU); mean over the file's lines of this peptide of 116.
FNQALGRPEKIHNK [Q9UHP3 379-392] gave a normalised SPOT signal, Boehringer light units (BLU); mean over the file's lines of this peptide of 100.
As to FNKYISRPRRVELA [P52945 167-180], the normalised SPOT signal, Boehringer light units (BLU); mean over the file's lines of this peptide stood at 385.
FLLLPPRPPPARPE [Q96IC8 98-112] had a normalised SPOT signal, Boehringer light units (BLU); mean over the file's lines of this peptide of 2020.
Same read-out and setting: in the case of FLGGPARPPSPSPS [P08588 264-278] it was 8610.
On the same count and under the same terms, the same measure for FMSSPRRPRSRGRQ [Q9HAP2 6-19]: 1160; for FNKYLSRPRRVEIA [O43364 164-177]: 156.
Consider FNFDFRRPGPEPPR [O43559 400-413], for which the normalised SPOT signal, Boehringer light units (BLU); mean over the file's lines of this peptide worked out at 100.
